This note sets out measurements from patent US20250263444A1 (KOREA UNIVERSITY RESEARCH AND BUSINESS FOUNDATION SEJONG …, published 2025).

T1: vIRF3 (Δ250-280) mutant (Kaposi's sarcoma-associated herpesvirus …, UniProt F5HIC6 1-566)
T1 construct: V5-tagged, stably expressed in LECs; also called V5/vIRF3(Δ250-280); V5-vIRF3(Δ250-280)
T1 sequence: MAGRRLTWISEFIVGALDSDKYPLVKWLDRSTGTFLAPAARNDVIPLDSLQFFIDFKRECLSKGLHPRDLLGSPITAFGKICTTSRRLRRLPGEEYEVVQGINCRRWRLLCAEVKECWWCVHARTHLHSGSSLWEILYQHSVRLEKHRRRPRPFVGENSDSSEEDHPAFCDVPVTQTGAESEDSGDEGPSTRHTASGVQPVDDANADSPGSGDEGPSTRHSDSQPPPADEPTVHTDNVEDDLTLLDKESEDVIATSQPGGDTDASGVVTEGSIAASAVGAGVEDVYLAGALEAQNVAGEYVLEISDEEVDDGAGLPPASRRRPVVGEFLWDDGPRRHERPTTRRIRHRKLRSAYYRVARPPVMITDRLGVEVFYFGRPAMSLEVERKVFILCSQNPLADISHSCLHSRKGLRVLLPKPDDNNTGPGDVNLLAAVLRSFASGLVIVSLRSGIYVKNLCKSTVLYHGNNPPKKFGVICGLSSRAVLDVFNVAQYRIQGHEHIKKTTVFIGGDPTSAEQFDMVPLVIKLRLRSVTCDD

T2: vIRF3 mutant with deleted aa250-260 (Kaposi's sarcoma-associated herpesvirus …, UniProt F5HIC6 1-566)
T2 construct: V5-tagged, expressed in LECs; end of the protein at 566 from the TM3 range (430-566); also called vIRF3(Δ250-260)
T2 sequence: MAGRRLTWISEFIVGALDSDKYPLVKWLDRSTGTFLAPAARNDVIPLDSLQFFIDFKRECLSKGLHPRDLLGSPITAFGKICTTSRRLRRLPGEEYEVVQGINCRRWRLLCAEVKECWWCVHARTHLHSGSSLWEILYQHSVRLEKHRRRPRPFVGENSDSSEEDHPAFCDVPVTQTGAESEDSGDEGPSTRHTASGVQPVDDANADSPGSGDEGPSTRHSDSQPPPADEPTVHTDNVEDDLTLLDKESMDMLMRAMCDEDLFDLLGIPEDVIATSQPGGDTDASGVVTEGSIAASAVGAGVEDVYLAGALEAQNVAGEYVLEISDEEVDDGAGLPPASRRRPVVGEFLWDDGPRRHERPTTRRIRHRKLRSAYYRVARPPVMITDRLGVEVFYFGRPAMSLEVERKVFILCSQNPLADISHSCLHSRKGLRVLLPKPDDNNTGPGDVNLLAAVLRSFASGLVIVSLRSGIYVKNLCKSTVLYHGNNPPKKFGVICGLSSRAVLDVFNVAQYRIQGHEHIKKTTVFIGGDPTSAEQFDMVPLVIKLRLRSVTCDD

B1: pyruvate kinase M2 (PKM2) (enzyme)
chain: not shown
notes: Either endogenous PKM2 of LECs or HA-tagged hPKM2 from pCMV-HA-hPKM2 in 293T cells; also called PMK2; hPKM2
B2: Kaposi's sarcoma-associated herpesvirus (KSHV) viral interferon regulatory factor 3 (vIRF3), wild type (other)
chain: MAGRRLTWISEFIVGALDSDKYPLVKWLDRSTGTFLAPAARNDVIPLDSLQFFIDFKRECLSKGLHPRDLLGSPITAFGKICTTSRRLRRLPGEEYEVVQGINCRRWRLLCAEVKECWWCVHARTHLHSGSSLWEILYQHSVRLEKHRRRPRPFVGENSDSSEEDHPAFCDVPVTQTGAESEDSGDEGPSTRHTASGVQPVDDANADSPGSGDEGPSTRHSDSQPPPADEPTVHTDNVEDDLTLLDKESACALMYHVGQEMDMLMRAMCDEDLFDLLGIPEDVIATSQPGGDTDASGVVTEGSIAASAVGAGVEDVYLAGALEAQNVAGEYVLEISDEEVDDGAGLPPASRRRPVVGEFLWDDGPRRHERPTTRRIRHRKLRSAYYRVARPPVMITDRLGVEVFYFGRPAMSLEVERKVFILCSQNPLADISHSCLHSRKGLRVLLPKPDDNNTGPGDVNLLAAVLRSFASGLVIVSLRSGIYVKNLCKSTVLYHGNNPPKKFGVICGLSSRAVLDVFNVAQYRIQGHEHIKKTTVFIGGDPTSAEQFDMVPLVIKLRLRSVTCDD

In experiment [1] the target is T1, vIRF3 (Δ250-280) mutant. The experiment is described as follows: told in words; LECs expressing the mutant.
The target of experiment [2] is T2, vIRF3 mutant with deleted aa250-260. The experiment is described as follows: IP with anti-PKM2, blot with anti-V5, LEC lysates.
The target in experiment [3] is B1. The experiment is described as follows: cell-based or functional assay.

On to B1, for which the binding result in experiment [1] and in experiment [2] was “no binding” in each case.

As to B2, the “Boyden chamber cell migration of LECs” value in experiment [3] stood at 2 fold.
